Molecular target: T1, BAX (Homo sapiens, UniProt Q07812)
T1 construct: Full-length human BAX-encoding cDNA (aa 1-192) was cloned into pTYB1 plasmid; made in house; host or cells: Escherichia coli BL21(DE3)
Assay: NMR analysis of BIM SAHB binding to BAX
Conditions: 1H-15N correlation spectrum, BIM SAHB titration
Text: To investigate the initiating event for BAX activation, the interaction of BAX with the BH3 ligand BIM SAHB was studied. […] BIM SAHB binding to BAX was monitored using Nuclear Magnetic Resonance (NMR) spectroscopy. Compared to the ^1H-^15N correlation spectrum of BAX, the addition of BIM SAHB broadened and shifted select NMR cross-peaks, indicating fast exchange between the bound and unbound conformations of BAX. The overall features of the NMR spectra were quite similar except for significant changes in the loop residues between α1 and α2 upon BIM SAHB binding. […] Significant changes were also observed for the side-chain NH2 of Q28, Q32, and Q52. […]
Screening by NMR is conducted by recording ^1H-^13C filtered-1D experiments of uniformly ^13C-labeled BAX at 25-50 μM concentrations, in the absence and presence of compounds at 50-100 μM concentrations. […] The weighted average chemical shift difference is calculated as √{square root over ({(ΔH)2+(ΔN/5)2}/2)} in p.p.m. and plotted as a function of the residue number of BAX. […] NMR experiments are processed with the NMRPipe spectral analysis package and chemical shifts variations measured with NMRView software. NMR spectra are recorded, for example, at 30° C. on Bruker Avance 600 MHz equipped with a z-shielded gradient, triple resonance cryoprobe.

T1 sequence (Q07812 whole entry, the tested form may be a part): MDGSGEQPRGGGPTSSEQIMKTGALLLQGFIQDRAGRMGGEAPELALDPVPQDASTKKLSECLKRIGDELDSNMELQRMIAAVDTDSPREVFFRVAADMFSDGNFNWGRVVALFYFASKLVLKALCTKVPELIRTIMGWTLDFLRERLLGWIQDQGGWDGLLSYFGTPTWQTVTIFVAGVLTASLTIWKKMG

Question: How did the “binding to BAX (chemical shift perturbation mapping)” value turn out when “BIM SAHB: hydrocarbon-stapled BIM BH3 peptide (SEQ ID NO:3), Stabilized Alpha-Helix of BCL-2 domain; direct BAX-activating compound” was run?
Answer: The value was “revealed interactions at a discrete subset of BAX residues”.
